Assay results as given in the DeepSol protein solubility set.

Experiment: soluble on expression in E. coli; label from the status in PepcDB or PDB records

| Sequence | soluble on expression in E. coli |
| --- | --- |
| MSYQNLVSEAGLTQKLLIHGDKELFQHELKTIFARNWLFLTHDSLIPSPGDYVKAKMGVDEVIVSRQNDGSVRAFLNVCRHRGKTLVHAEAGNAKGFVCGYHGWGYGSNGELQSVPFEKELYGDAIKKKCLGLKEVPRIESFHGFIYGCFDAEAPPLIDYLGDAAWYLEPTFKYSGGLELVGPPGKVVVKANWKSFAENFVGDGYHVGWTHAAALRAGQSVFSSIAGNAKLPPEGAGLQMTSKYGSGMGVFWGYYSGNFSADMIPDLMAFGAAKQEKLAKEIGDVRARIYRSFLNGTIFPNNSFLTGSAAFRVWNPIDENTTEVWTYAFVEKDMPEDLKRRVADAVQRSIGPAGFWESDDNENMETMSQNGKKYQSSNIDQIASLGFGKDVYGDECYPGVVGKSAIGETSYRGFYRAYQAHISSSNWAEFENASRNWHIEHTKTTDR | soluble |
| GPLGSPILELKEKIQPEILELIKQQRLNRLVEGTCFRKLNARRRQDKFWYCRLSPNHKVLHYGDLEESPQGEVPHDSLQDKLPVADIKAVVTGKDCPHMKEKGALKQNKEVLELAFSILYDSNCQLNFIAPDKHEYCIWTDGLNALLGK | soluble |
| MQTQEVVIKPTLKVLLKSDSQNLEEVVVTAMGIKRSEKSLGYAVSSVKGDEITKARESNVLNSLSGKIAGLQIAQSSGTVGGSSSIQIRGASSIGTVSSPLFIIDGLPIDNGSYNPDRTNGIVDVGNRAGDINSDDIESINVLKGAAATALYGARAKDGAIVITTKKGKKNSPVFVTVNSSTRFENVLKLPDFQNEYAQGSYGVYNVKMLNGWGPKISSVQDQQFTDYKGDKVTLKANPDNVKDFYETGMSYINNVSVAGGGEKADFRLSFTSTNQTGVVPGSDYNKYAFSVNAGMNFTSNFTGRISAQYIRSDSEGRPAQGANDSNLLIPLINGLPRTIDIHDIKQNWIDENGKQVTLDPEGKSNNPYWIINKNKFTNNLDRMIGNITLTYKPIEGLTITNNAGTDFYTEGRRKLYAKGTVGALNGKFQTWNLYKRIINNDLMVSYEKTFANDYHFKAMVGHNLYQEEWKNENVQAQNLVVDGLYTYTNAKSTTPVNYYEKKRLVGLYGDISLGYKDMLFINVTGRNDWSSTLPINNRSYFYPSISGSFIFTELMENKDILNYGKIRLSYANVGSDEDPYNLAFKYTPASTYFLQYLGNVNTFPHMGLVGFTGPRVLPNENLKPQNQSSFEVGADLRFFGGKIRLDMTYYSNITKNQIVSIDVPLSTGYFANNINAGKIANKGVEVTLGLTPVETRNFKWDLDATFASNKQTVEELAEGLDEYTLTSGLSGLQIKAAKGDSFGLYGTAWKRDDQGNYVINSKTGLRETVNNVRLGDVYPDFTMGINNTLTYKGLTFSFLIDIRHGGSLYSETVANLRSSGLAAETVAHREDASFIEPGVILQDDGTYRPNDVPVKSMQDYWQHVANSSNNEGNIYNASFVKLREVQLSYSFPRKWFKSFFVKSLDLGFEARNLWIIKDHVPHIDPEANFFGPSQIGGGVEFNSIPSTRSFGFNLRLTL | not soluble |
| MKYLSAKSKLNIDAQDGGFTTTLLSYCLENGILDAVVVVGDKNWKPVAYLATTPTELLKSTKSKYSISPNNKLLEYATENYDKVGLVGLPCHILGGLQFDLTLKVGLFCTKNFYYDTIKSIIKERFGVNIDEVAKMNITKGKFVVETLKKKGFAGTEKVVYEIPIKEIEKLCNLGCRVCTDFSAKYADVSVGSVGSEDGWNTVIVRNKMVEDIINEMAEKGLIEVKETVDIKAIEKLENIKKKNEEINKCSAYFAVCPALFLEHHHHHH | not soluble |
| GSHMAMAYVIRDEWGNQIWICPGCNKPDDGSPMIGCDDCDDWYHWPCVGIMAAPPEEMQWFCPKCANKIKKDKKH | soluble |
| MSLGASATRILFVDDEPSILKSLRRVTRSMSAECIFVDNGRDALALMRENPFDVVVSDMRMPEMDGATLLAEIARDYPETMRLVLSGFAEDDLILAAINEGRVWGFIHKPWDDHQLIVTLQHAVTTQQMMVERALLRRTVERYTSELKESFVSFVGGSLPMQAVYNQIERAAPSNASVFITGPSGTGKELAAEAIHKLSERKNGPFIALNCAAIPTELMESEIFGHVKGAFTGAVSARDGAATQAHNGTLFLDEIGEMDISLQAKLLRFIQTGSFQKVGGTKQENVNIRFVCATNRAPLDAIANGTLREDLYYRLNVVALHLPPLNQRENDPILLANTFLQRFAAQERKELVGFSSEASSLILGYDWPGNVRQLQNCIHNVVVMSAGPLITPNDIAIALQLDPQQVATEGHHHHHH | not soluble |
| GPGSMPNEKAQTLTVAEAFAETSKALQQFNIERIRVDGLSRGNACDEEKFRMLTEQEFMREFVFHSRPCIIVGALCDWPALQRWRDDRYLFDLDEKLPMVYEKERTSKGNGEINENDSFHEDEEIVTESDAEDSKNGTSNNEAESQGTLGPRRVTVALTPNGRADAVTYVTYNAVKNESQVHDKLEGKSDFVVTEKLFMSAAELRVTLPELYRLLRANPLVPPLKSQFVDLRRPQRSIAYAQMQNNCLAEEYQHLHADIDTALDRFGTRVFGGKREAANIWLGTPASVSSMHQDWVENLYAVVRGVKEFILVPPWEGVFVPKPELPAAAFTLKAAANCKEGEEEYIFSDSPTRDGTSVPWMDVELTPAAVDDPLHIKEELRDKLHPLIAYVQPGEVLYLPALWLHRVAQHADSEDSRVIEEASTEEIAKVSRHDQKHSAPLPLIAAVNYWYDMSFTNPAVVMLREFGLLL | not soluble |
| MSLNLVSEQLLAANGLNHQDLFAILGQLAERRLDYGDLYFQSSYHESWVLEDRIIKDGSYNIDQGVGVRAISGEKTGFAYADQISLLALEQSAQAARTIVRENGEGKVKTLAAVAHQPLYTTLDPLQSMSREEKLDILRRVDKAAREADKRVQEVNASLTGVYELILVAATDGTLAADVRPLVRLSVSVQVEEDGKRERGASGGGGRFGYEYFLADLDGEVRADAWAKEAVRMALVNLSAVAAPAGTLPVVLGAGWPGVLLHEAVGHGLEGDFNRRGTSVFSGQIGEQVASALCTVVDDGTMMNRRGSVAIDDEGTPGQYNVLIENGVLKGYMQDKLNARLMGAAPTGNGRRESYAHLPMPRMTNTYMLAGQSTPQEIIESVEYGIYAPNFGGGQVDITSGKFVFSTSEAYLIENGKVTTPVKGATLIGSGIETMQQISMVGNDLKLDNGVGVCGKEGQSLPVGVGQPTLKVDNLTVGGTA | not soluble |
| MGSDKIHHHHHHMRRTYLTLSEEDKDYLKTLSKKRTIQAQIVDRAKILLYKSDGMTFNAIAEKLAISSATVRLCVSKYYEGGIEKALFDTQRPGRPSEITDDAKAWIINLACQRPVELGYAQELWTLNALHKHIQKHAEEAGYPRLTTITKPYIQKFLKEQDIKPFKIRYYCEKRDQDFESKMHEVLLVYKQIEMQFDENGTLIVPDDYKLTITVSYDEKPGIQAISNTAPDLRPTTENGEVYRDAEYKRLGTLSLLAGIDLLTGEAIPLVSETHKSSDFIEFLKIRDKKYPLQDTIRIILDNHSAHTSKETQRFLDTMPKGRFKFVFTPKHGSWLNMIESFFSKMTKQMLRGIRVKTKQELEERIYQYFEEVNREPVVYHWKYKMDEIEKKKCCTELWMPFSAH | not soluble |
| GMLELVGEYWEQLKITVVPVVAAAEDDDNEQHEEKAAEGEEKEEENGDEDEDEDEDEDDDDDDDEDEEEEEEVTDQLEDLREHFKNTEEGKALVHHYEECAERVKIQQQQPGYADLEHKEDCVEEFFHLQHYLDTATAPRLFDKLK | soluble |
| MLEKSFLKSKQLFLCGLGVLMLQACTCPNTSQRNSFLQDVPYWMLQNRSEYITQGVDSSHIVDGKKTEEIEKIATKRATIRVAQNIVHKLKEAYLSKTNRIKQKITNEMFIQMTQPIYDSLMNVDRLGIYINPNNEEVFALVRARGFDKDALSEGLHKMSLDNQAVSILVAKVEEIFKDSVNYGDVKVPIAM | not soluble |
| EHIEELLRNIRTQVLIKLIKPYTRIHIPFISKELNIDVADVESLLVQCILDNTIHGRIDQVNQLLELDHQKRGGARYTALDKW | soluble |
| MNIPQLTALCLRYHGVLLDASEEVVHVAVVDAPSHELLDALHFATTKRIEITCWTRQQMEGHASRTQQTLPVAVQEKHQPKAELLTRTLQSALEQRASDIHIEPADNAYRIRLRIDGVLHPLPDVSPDAGVALTARLKVLGNLDIAEHRLPQDGQFTVELAGNAVSFRIATLPCRGGEKVVLRLLQQVGQALDVNTLGMQPLQLADFAHALQQPQGLVLVTGPTGSGKTVTLYSALQKLNTADINICSVEDPVEIPIAGLNQTQIHPRAGLTFQGVLRALLRQDPDVIMIGEIRDGETAEIAIKAAQTGHLVLSTLHTNSTCETLVRLQQMGVARWMLSSALTLVIAQRLVRKLCPHCRRQQGEPIHIPDNVWPSPLPHWQAPGCVHCYHGFYGRTALFEVLPITPVIRQLISANTDVESLETHARQAGMRTLFENGCLAVEQGLTTFEELIRVLGMPHGE | soluble |
| MTHELISLPYAVDALAPVISKETVEFHHGKHLKTYVDNLNKLIIGTEFENADLNTIVQKSEGGIFNNAGQTLNHNLYFTQFRPGKGGAPKGKLGEAIDKQFGSFEKFKEEFNTAGTTLFGSGWVWLASDANGKLSIEKEPNAGNPVRKGLNPLLGFDVWEHAYYLTYQNRRADHLKDLWSIVDWDIVESRY | soluble |
| MGSDKIHHHHHHMRVDVMVIGAGAAGMAAALKAKEEGAEVLLVERDERTGGILNQCIHNGFGLHYFRQELTGPEYAERFQEKMEKMGIRALTNAYVKRVEDRRVILVTEQGIEEVEVGALVYATGARERPFGSLMIPGDRPSGIFTAGVAQRLINIENRLPGKRALILGSGDIGLIMARRLTLEGMEVVGVVERLPYAGGLLRNVIQCLEDYNIPLYLSSTVVEVRGRERLEEVVVAKVDEQFRPIPRTERVFKVDTLVLSVGLIPQVELIENLVVKNPTSRGVGVSNIGQTSRDWIFSAGNCTVIFDLVDYVSYEGETAGRYAAKFVKGEIPREKIPVRPGKNVMVVHPIWYTPAEPLTLYLRVKKPMEKGRLVVGRFAREFEDLVPSEMLRVKISDRDLEGLDEIVVSVEEVN | not soluble |
| MKNETLHTQEDIIKMLDSLLRPAEPFWNEFYANREKDVPFFENVPDENLVSYIQKKRVSKGKVLELGCGPGRNAIYLANEGFDVTAVDVSIEGINWAKERALAKGVEIEFICDSIFNLEVQNEFDFVYDSGCLHHIPPHRRVNYVDLIKNALKSGGYFGLTCFAAGDLDERNGSEITDWDVYRGWSLQGGLAYSEEKLREIFKGFEVIEIRKMEQIEQPNTMFGESFLWTALFKKNLEHHHHHH | soluble |
| DIMVVVDAGHGGKDPGAVGSRGEREKDVVLSIAQLLAKRLKREKGFDVRLVRNDDFFVPLRKRVEFAHKSNADMFISVHADAAPRLTASGASVFALSEGGATSATARFMAQRENGADLLGATSLLNLKDKDPMLAGVILDMSMNATIAASLQLGHTILGSLEGITTLHQKRVEQAGFAVLKSPDVPSILVETGFISNSRDSQRLVTARHQQAVADGLFDGLQRYFQRNPPMDSHLAWMQAQKQEQQA | not soluble |
| MGSDKIHHHHHHMKNTPIERNVIDETINEFQIVDFSKATIREVKAIASKAEAVSGVEFIKMEMGVPGLPASAVGVKAEIEALQNGIASLYPDINGLPELKKEASDFIKAFINVDLSPEGCVPVTGSMQGTFASFLTCSQCDEKKDTILFIDPGFPVQKQQLVVMGQKYETFDVYDYRGDKLKEKLESYLRKGNISAIIYSNPNNPSWICLKDEELRIIGELATQYDVIVLEDLAYFAMDFRQDLSTPYQAPFQPSVAHYTDNYVLLISGSKAFSYAGQRIGVSCISDKLYHRSYPGLTKRYGGGTFGTVFIHRVLYALSSGTSHSAQYAMAAMLKAANEGQYNFLSEVKVYGDRAQKLKEIFLRHGFYLVYDNDLGDPIADGFYFTIGYPGMTSGELAKELMYYGVSAISLVTTGSHQEGLRACTSFIKDHQYAQLDERMKLFAEHHPIA | not soluble |
| AIAAAVKDSCGKGEMATGNGRRLHLGIPEAVFVEDVDSFMKQPGNETADTVLKKLDEQYQKYKFMELNLAQKKRRLKGQIPEIKQTLEILKYMQKKKESTNSMETRFLLADNLYCKASVPPTDKVCLWLGANVMLEYDIDEAQALLEKNLSTATKNLDSLEEDLDFLRDQFTTTEVNMARVYNWDVKRRNKDDSTKNKA | soluble |
